Assay results: publication PMC6648332 (Nucleic Acids Research, 2019)

Target: the molecule itself
Experiment: SEC

B1: 3′-5′ exonuclease domain of human EXD2 (residues 76−295, EXD2-exo) (domain or fragment, UniProt Q9NVH0 76-295, looked up)
chain: KAKVVTVSQEAEWDQIEPLLRSELEDFPVLGIDCEWVNLEGKASPLSLLQMASPSGLCVLVRLPKLICGGKTLPRTLLDILADGTILKVGVGCSEDASKLLQDYGLVVRGCLDLRYLAMRQRNNLLCNGLSLKSLAETVLNFPLDKSLLLRCSNWDAETLTEDQVIYAARDAQISVALFLHLLGYPFSRNSPGEKNDDHSSWRKVLEKCQGVVDIPFRSK
Question: How did the “stoichiometry N” value turn out when B1 was run?
Answer: 2
